# Assay results reported in patent publication US20040176301A1 (CYCLACEL, published 2004).
# Square brackets hold non-standard residues; d marks the D form. Ends that are not written are not given here. Phe(3-F) = N[C@@H](Cc1cccc(F)c1)C(=O)O; Phe(4-F) = N[C@@H](Cc1ccc(F)cc1)C(=O)O; 1Nal = N[C@@H](Cc1cccc2ccccc12)C(=O)O; 2Nal = N[C@@H](Cc1ccc2ccccc2c1)C(=O)O; hPhe = N[C@@H](CCc1ccccc1)C(=O)O; Tic = O=C(O)[C@@H]1Cc2ccccc2CN1; Cha = N[C@@H](CC1CCCCC1)C(=O)O
# B1: H-His-Ala-Lys-Arg-Arg-Leu-Ile-Cha-NH2 (peptide)
# peptide: H-HAKRRLI[Cha]-NH2
# SMILES: CC[C@H](C)[C@H](NC(=O)[C@H](CC(C)C)NC(=O)[C@H](CCCNC(=N)N)NC(=O)[C@H](CCCNC(=N)N)NC(=O)[C@H](CCCCN)NC(=O)[C@H](C)NC(=O)[C@@H](N)Cc1c[nH]cn1)C(=O)N[C@@H](CC1CCCCC1)C(N)=O
# B2: H-His-Ala-Lys-Arg-Arg-Leu-Ile-mFPhe-NH2 (peptide)
# peptide: H-HAKRRLI[Phe(3-F)]-NH2
# SMILES: CC[C@H](C)[C@H](NC(=O)[C@H](CC(C)C)NC(=O)[C@H](CCCNC(=N)N)NC(=O)[C@H](CCCNC(=N)N)NC(=O)[C@H](CCCCN)NC(=O)[C@H](C)NC(=O)[C@@H](N)Cc1c[nH]cn1)C(=O)N[C@@H](Cc1cccc(F)c1)C(N)=O
# B3: H-His-Ala-Lys-Arg-Arg-Leu-Ile-1Nap-NH2 (peptide)
# peptide: H-HAKRRLI[1Nal]-NH2
# SMILES: CC[C@H](C)[C@H](NC(=O)[C@H](CC(C)C)NC(=O)[C@H](CCCNC(=N)N)NC(=O)[C@H](CCCNC(=N)N)NC(=O)[C@H](CCCCN)NC(=O)[C@H](C)NC(=O)[C@@H](N)Cc1c[nH]cn1)C(=O)N[C@@H](Cc1cccc2ccccc12)C(N)=O
# B4: H-His-Ala-Lys-Arg-Arg-Leu-Ile-Tic-NH2 (peptide)
# peptide: H-HAKRRLI[Tic]-NH2
# SMILES: CC[C@H](C)[C@H](NC(=O)[C@H](CC(C)C)NC(=O)[C@H](CCCNC(=N)N)NC(=O)[C@H](CCCNC(=N)N)NC(=O)[C@H](CCCCN)NC(=O)[C@H](C)NC(=O)[C@@H](N)Cc1c[nH]cn1)C(=O)N1Cc2ccccc2C[C@H]1C(N)=O
# B5: H-His-Ala-Lys-Arg-Arg-Leu-Ile-pFPhe-NH2 (peptide)
# peptide: H-HAKRRLI[Phe(4-F)]-NH2
# SMILES: CC[C@H](C)[C@H](NC(=O)[C@H](CC(C)C)NC(=O)[C@H](CCCNC(=N)N)NC(=O)[C@H](CCCNC(=N)N)NC(=O)[C@H](CCCCN)NC(=O)[C@H](C)NC(=O)[C@@H](N)Cc1c[nH]cn1)C(=O)N[C@@H](Cc1ccc(F)cc1)C(N)=O
# B6: H-His-Ala-Lys-Arg-Arg-Leu-Ile-Hof-NH2 (peptide)
# peptide: H-HAKRRLI[hPhe]-NH2
# SMILES: CC[C@H](C)[C@H](NC(=O)[C@H](CC(C)C)NC(=O)[C@H](CCCNC(=N)N)NC(=O)[C@H](CCCNC(=N)N)NC(=O)[C@H](CCCCN)NC(=O)[C@H](C)NC(=O)[C@@H](N)Cc1c[nH]cn1)C(=O)N[C@@H](CCc1ccccc1)C(N)=O
# B7: H-His-Ala-Lys-Arg-Arg-Leu-Ile-2Nap-NH2 (peptide)
# peptide: H-HAKRRLI[2Nal]-NH2
# SMILES: CC[C@H](C)[C@H](NC(=O)[C@H](CC(C)C)NC(=O)[C@H](CCCNC(=N)N)NC(=O)[C@H](CCCNC(=N)N)NC(=O)[C@H](CCCCN)NC(=O)[C@H](C)NC(=O)[C@@H](N)Cc1c[nH]cn1)C(=O)N[C@@H](Cc1ccc2ccccc2c1)C(N)=O
# Target: CDK2/Cyclin E complex (UniProt P24941 1-298; P24864 1-410)
# Experiment: cell-based or functional assay
"% Inhibition, cyclin E/CDK2 kinase [%]","IC50, cyclin E/CDK2 kinase [nM]",Binder
82,1600,HSKRRLFG-NH2 [P21 C-terminius-LFG hybrid HSKRRLFG-NH2]

# Target: CDK4/Cyclin D1 complex (UniProt P11802 1-303; P24385 1-295)
# Sequence (P11802 other isoform, or with tags, fused parts or gaps, chain 1 of 2): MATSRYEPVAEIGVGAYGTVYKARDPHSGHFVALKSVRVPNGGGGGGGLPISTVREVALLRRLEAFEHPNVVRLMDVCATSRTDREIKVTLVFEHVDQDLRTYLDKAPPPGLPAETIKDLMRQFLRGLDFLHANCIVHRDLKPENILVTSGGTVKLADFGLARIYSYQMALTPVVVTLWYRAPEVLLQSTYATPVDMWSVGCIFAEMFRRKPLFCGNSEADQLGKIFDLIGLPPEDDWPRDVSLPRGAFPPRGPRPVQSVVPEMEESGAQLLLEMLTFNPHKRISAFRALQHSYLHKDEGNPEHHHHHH
# Sequence (P24385 whole entry, chain 2 of 2): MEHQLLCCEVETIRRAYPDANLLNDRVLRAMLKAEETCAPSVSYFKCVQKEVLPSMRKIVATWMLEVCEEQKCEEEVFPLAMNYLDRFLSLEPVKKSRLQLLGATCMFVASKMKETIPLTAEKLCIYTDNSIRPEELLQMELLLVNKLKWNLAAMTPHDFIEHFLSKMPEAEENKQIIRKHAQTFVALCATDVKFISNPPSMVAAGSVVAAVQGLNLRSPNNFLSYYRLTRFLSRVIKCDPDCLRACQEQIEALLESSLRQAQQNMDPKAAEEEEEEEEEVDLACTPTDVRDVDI
# Experiment: cell-based or functional assay
row,"% Inhibition, cyclin D1/CDK4 kinase [%]",Binder
1,42,HSKRRLFG-NH2 [P21 C-terminius-LFG hybrid HSKRRLFG-NH2]

# Target: CDK2/cyclin A (UniProt P24941 1-298; P20248 1-432)
# Experiment: cell-based or functional assay
row,"Relative activity, Kinase Inhibition (CDK2/cyclin A kinase assay, pRb substrate, [ATP] = 100 µM)",Binder
1,< 0.1 relative to H-His-Ala-Lys-Arg-Arg-Leu-Ile-Phe-NH2 (=1),B1
2,0.3 relative to H-His-Ala-Lys-Arg-Arg-Leu-Ile-Phe-NH2 (=1),H-HAKRRLIW-NH2 [H-His-Ala-Lys-Arg-Arg-Leu-Ile-Trp-NH2]
3,0.8 relative to H-His-Ala-Lys-Arg-Arg-Leu-Ile-Phe-NH2 (=1),B2
4,0.2 relative to H-His-Ala-Lys-Arg-Arg-Leu-Ile-Phe-NH2 (=1),B3
5,0.3 relative to H-His-Ala-Lys-Arg-Arg-Leu-Ile-Phe-NH2 (=1),B4
6,0.3 relative to H-His-Ala-Lys-Arg-Arg-Leu-Ile-Phe-NH2 (=1),H-HAKRRLIY-NH2 [H-His-Ala-Lys-Arg-Arg-Leu-Ile-Tyr-NH2]
7,1 relative to H-His-Ala-Lys-Arg-Arg-Leu-Ile-Phe-NH2 (=1),B5
8,< 0.1 relative to H-His-Ala-Lys-Arg-Arg-Leu-Ile-Phe-NH2 (=1),B6
9,1.2 relative to H-His-Ala-Lys-Arg-Arg-Leu-Ile-Phe-NH2 (=1),B7
10,< 0.1 relative to H-His-Ala-Lys-Arg-Arg-Leu-Ile-Phe-NH2 (=1),H-HAKRRLIK-NH2 [H-His-Ala-Lys-Arg-Arg-Leu-Ile-Lys-NH2]
